Source: article doi:10.1101/681668 (bioRxiv, 2019)

Tests used:
Test in all cases: pull-down
[1] = biological target: T1, MBP-ORC1 R105Q (human, UniProt Q13415 1-861, R105Q)
T1 sequence: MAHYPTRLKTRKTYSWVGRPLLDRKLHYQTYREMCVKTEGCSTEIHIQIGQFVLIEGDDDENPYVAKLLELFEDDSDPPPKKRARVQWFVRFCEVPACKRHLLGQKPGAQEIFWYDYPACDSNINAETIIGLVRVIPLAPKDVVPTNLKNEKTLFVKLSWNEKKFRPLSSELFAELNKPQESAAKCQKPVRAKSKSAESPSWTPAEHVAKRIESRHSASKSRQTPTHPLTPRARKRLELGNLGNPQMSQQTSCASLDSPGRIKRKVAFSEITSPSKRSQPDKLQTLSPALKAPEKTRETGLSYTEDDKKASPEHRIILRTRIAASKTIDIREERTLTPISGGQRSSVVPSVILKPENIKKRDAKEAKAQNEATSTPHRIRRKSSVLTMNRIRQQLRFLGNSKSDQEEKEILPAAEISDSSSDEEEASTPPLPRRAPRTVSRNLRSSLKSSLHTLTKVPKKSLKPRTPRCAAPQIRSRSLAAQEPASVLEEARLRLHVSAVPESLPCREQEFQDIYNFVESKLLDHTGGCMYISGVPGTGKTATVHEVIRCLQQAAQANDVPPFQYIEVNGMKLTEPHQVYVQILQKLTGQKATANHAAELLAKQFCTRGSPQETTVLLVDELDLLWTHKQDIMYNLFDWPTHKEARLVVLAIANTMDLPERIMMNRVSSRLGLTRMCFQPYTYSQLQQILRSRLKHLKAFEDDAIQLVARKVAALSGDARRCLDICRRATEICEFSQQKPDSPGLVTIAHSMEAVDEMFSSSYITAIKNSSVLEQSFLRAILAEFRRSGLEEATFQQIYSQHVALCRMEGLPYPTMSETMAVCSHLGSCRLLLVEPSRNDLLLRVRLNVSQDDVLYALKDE

[2] = biological target: T2, MBP-ORC1 CDK12 (human, UniProt Q13415 1-861, S258A | S273A)
T2 sequence: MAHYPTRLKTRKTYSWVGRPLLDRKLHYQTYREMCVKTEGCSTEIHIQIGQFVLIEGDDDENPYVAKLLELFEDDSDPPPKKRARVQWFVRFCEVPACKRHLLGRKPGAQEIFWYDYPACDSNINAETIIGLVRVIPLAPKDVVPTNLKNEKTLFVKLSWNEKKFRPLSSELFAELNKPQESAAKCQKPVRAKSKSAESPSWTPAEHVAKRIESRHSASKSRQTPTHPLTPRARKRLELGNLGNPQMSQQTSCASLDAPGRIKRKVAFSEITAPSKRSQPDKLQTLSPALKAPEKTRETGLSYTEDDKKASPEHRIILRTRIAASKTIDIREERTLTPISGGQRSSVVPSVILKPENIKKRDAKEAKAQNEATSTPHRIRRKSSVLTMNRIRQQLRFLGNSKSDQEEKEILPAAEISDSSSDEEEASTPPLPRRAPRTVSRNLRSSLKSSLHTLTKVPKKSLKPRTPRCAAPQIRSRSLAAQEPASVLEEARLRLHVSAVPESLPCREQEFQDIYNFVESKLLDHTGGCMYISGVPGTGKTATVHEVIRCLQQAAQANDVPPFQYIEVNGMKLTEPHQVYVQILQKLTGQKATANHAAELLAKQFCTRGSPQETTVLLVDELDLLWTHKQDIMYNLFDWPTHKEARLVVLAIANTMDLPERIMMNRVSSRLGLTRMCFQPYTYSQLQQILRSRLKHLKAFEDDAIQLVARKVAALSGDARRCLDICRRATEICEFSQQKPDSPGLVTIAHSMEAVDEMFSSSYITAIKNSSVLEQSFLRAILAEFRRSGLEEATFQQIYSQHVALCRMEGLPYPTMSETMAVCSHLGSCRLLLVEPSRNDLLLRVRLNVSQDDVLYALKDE

[3] = biological target: T3, MBP-ORC1 CDK3 (human, UniProt Q13415 1-861, T375A)
T3 sequence: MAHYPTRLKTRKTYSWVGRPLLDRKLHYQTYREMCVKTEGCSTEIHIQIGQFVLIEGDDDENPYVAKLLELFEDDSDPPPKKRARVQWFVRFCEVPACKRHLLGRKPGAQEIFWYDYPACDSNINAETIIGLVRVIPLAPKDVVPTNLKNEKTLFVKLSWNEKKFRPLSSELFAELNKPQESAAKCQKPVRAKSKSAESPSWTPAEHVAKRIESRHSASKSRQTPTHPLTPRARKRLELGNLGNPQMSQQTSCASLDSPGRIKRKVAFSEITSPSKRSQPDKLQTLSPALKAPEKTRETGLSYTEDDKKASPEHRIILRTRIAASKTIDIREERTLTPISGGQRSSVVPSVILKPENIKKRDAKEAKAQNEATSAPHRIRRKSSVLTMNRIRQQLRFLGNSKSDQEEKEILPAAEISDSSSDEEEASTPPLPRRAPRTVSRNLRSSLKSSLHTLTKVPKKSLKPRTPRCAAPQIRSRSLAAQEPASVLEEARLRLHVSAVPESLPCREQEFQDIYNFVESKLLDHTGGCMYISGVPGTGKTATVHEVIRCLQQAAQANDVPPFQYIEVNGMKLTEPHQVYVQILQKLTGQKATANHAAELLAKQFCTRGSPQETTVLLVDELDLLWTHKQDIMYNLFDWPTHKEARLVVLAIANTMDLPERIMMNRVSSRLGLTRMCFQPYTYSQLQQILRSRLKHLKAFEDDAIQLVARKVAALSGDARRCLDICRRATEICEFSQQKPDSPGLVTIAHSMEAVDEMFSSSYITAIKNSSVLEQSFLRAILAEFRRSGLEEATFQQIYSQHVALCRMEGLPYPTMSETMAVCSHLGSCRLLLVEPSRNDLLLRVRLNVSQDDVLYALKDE

Measured: binding result

B1: GST-CDC6 (natural protein)
chain: MPQTRSQAQATISFPKRKLSRALNKAKNSSDAKLEPTNVQTVTCSPRVKALPLSPRKRLGDDNLCNTPHLPPCSPPKQGKKENGPPHSHTLKGRRLVFDNQLTIKSPSKRELAKVHQNKILSSVRKSQEITTNSEQRCPLKKESACVRLFKQEGTCYQQAKLVLNTAVPDRLPAREREMDVIRNFLREHICGKKAGSLYLSGAPGTGKTACLSRILQDLKKELKGFKTIMLNCMSLRTAQAVFPAIAQEICQEEVSRPAGKDMMRKLEKHMTAEKGPMIVLVLDEMDQLDSKGQDVLYTLFEWPWLSNSHLVLIGIANTLDLTDRILPRLQAREKCKPQLLNFPPYTRNQIVTILQDRLNQVSRDQVLDNAAVQFCARKVSAVSGDVRKALDVCRRAIEIVESDVKSQTILKPLSECKSPSEPLIPKRVGLIHISQVISEVDGNRMTLSQEGAQDSFPLQQKILVCSLMLLIRQLKIKEVTLGKLYEAYSKVCRKQQVAAVDQSECLSLSGLLEARGILGLKRNKETRLTKVFFKIEEKEIEHALKDKALIGNILATGLP
binds: all assays above
